# Test results as given in patent publication US20260167699A1 (Chugai, published 2026).
# B1: GpH7-A5/GpH7-B3 variant I336_12R/GpL16-k0 (antibody, human IgG1, kappa)
# heavy 1: not shown
# heavy 2: not shown
# light: DIVMTQSPLSLPVTPGEPASISCQASESLVHSNRNTYLHWYLQKPGQSPQLLIYKVSNRFSGVPDRFSGSGSGTDFTLKISRVEAEDVGVYYCSQNTHVPPTFGQGTKVEIERTVAAPSVFIFPPSDEQLKSGTASVVCLLNNFYPREAKVQWKVDNALQSGNSQESVTEQDSKDSTYSLSSTLTLSKADYEKHKVYACEVTHQGLSSPVTKSFNRGEC
# notes: copies: 1 + 1 + 2
# B2: GpH7-A5/GpH7-B3 variant I336_16H/GpL16-k0 (antibody, human IgG1, kappa)
# heavy 1: not shown
# heavy 2: not shown
# light: DIVMTQSPLSLPVTPGEPASISCQASESLVHSNRNTYLHWYLQKPGQSPQLLIYKVSNRFSGVPDRFSGSGSGTDFTLKISRVEAEDVGVYYCSQNTHVPPTFGQGTKVEIERTVAAPSVFIFPPSDEQLKSGTASVVCLLNNFYPREAKVQWKVDNALQSGNSQESVTEQDSKDSTYSLSSTLTLSKADYEKHKVYACEVTHQGLSSPVTKSFNRGEC
# notes: copies: 1 + 1 + 2
# B3: GpH7-A5/GpH7-B3 variant I336_11K/GpL16-k0 (antibody, human IgG1, kappa)
# heavy 1: not shown
# heavy 2: not shown
# light: DIVMTQSPLSLPVTPGEPASISCQASESLVHSNRNTYLHWYLQKPGQSPQLLIYKVSNRFSGVPDRFSGSGSGTDFTLKISRVEAEDVGVYYCSQNTHVPPTFGQGTKVEIERTVAAPSVFIFPPSDEQLKSGTASVVCLLNNFYPREAKVQWKVDNALQSGNSQESVTEQDSKDSTYSLSSTLTLSKADYEKHKVYACEVTHQGLSSPVTKSFNRGEC
# notes: copies: 1 + 1 + 2
# B4: GpH7-A5/GpH7-B3 variant K326_03V/GpL16-k0 (antibody, human IgG1, kappa)
# heavy 1: not shown
# heavy 2: not shown
# light: DIVMTQSPLSLPVTPGEPASISCQASESLVHSNRNTYLHWYLQKPGQSPQLLIYKVSNRFSGVPDRFSGSGSGTDFTLKISRVEAEDVGVYYCSQNTHVPPTFGQGTKVEIERTVAAPSVFIFPPSDEQLKSGTASVVCLLNNFYPREAKVQWKVDNALQSGNSQESVTEQDSKDSTYSLSSTLTLSKADYEKHKVYACEVTHQGLSSPVTKSFNRGEC
# notes: copies: 1 + 1 + 2
# B5: GpH7-A5/GpH7-B3 variant K326_06M/GpL16-k0 (antibody, human IgG1, kappa)
# heavy 1: not shown
# heavy 2: not shown
# light: DIVMTQSPLSLPVTPGEPASISCQASESLVHSNRNTYLHWYLQKPGQSPQLLIYKVSNRFSGVPDRFSGSGSGTDFTLKISRVEAEDVGVYYCSQNTHVPPTFGQGTKVEIERTVAAPSVFIFPPSDEQLKSGTASVVCLLNNFYPREAKVQWKVDNALQSGNSQESVTEQDSKDSTYSLSSTLTLSKADYEKHKVYACEVTHQGLSSPVTKSFNRGEC
# notes: copies: 1 + 1 + 2
# B6: GpH7-A5/GpH7-B3 variant I336_19Q/GpL16-k0 (antibody, human IgG1, kappa)
# heavy 1: not shown
# heavy 2: not shown
# light: DIVMTQSPLSLPVTPGEPASISCQASESLVHSNRNTYLHWYLQKPGQSPQLLIYKVSNRFSGVPDRFSGSGSGTDFTLKISRVEAEDVGVYYCSQNTHVPPTFGQGTKVEIERTVAAPSVFIFPPSDEQLKSGTASVVCLLNNFYPREAKVQWKVDNALQSGNSQESVTEQDSKDSTYSLSSTLTLSKADYEKHKVYACEVTHQGLSSPVTKSFNRGEC
# notes: copies: 1 + 1 + 2
# B7: GpH7-A5/GpH7-B3 variant I336_18N/GpL16-k0 (antibody, human IgG1, kappa)
# heavy 1: not shown
# heavy 2: not shown
# light: DIVMTQSPLSLPVTPGEPASISCQASESLVHSNRNTYLHWYLQKPGQSPQLLIYKVSNRFSGVPDRFSGSGSGTDFTLKISRVEAEDVGVYYCSQNTHVPPTFGQGTKVEIERTVAAPSVFIFPPSDEQLKSGTASVVCLLNNFYPREAKVQWKVDNALQSGNSQESVTEQDSKDSTYSLSSTLTLSKADYEKHKVYACEVTHQGLSSPVTKSFNRGEC
# notes: copies: 1 + 1 + 2
# B8: GpH7-A5/GpH7-B3 variant I336_08L/GpL16-k0 (antibody, human IgG1, kappa)
# heavy 1: not shown
# heavy 2: not shown
# light: DIVMTQSPLSLPVTPGEPASISCQASESLVHSNRNTYLHWYLQKPGQSPQLLIYKVSNRFSGVPDRFSGSGSGTDFTLKISRVEAEDVGVYYCSQNTHVPPTFGQGTKVEIERTVAAPSVFIFPPSDEQLKSGTASVVCLLNNFYPREAKVQWKVDNALQSGNSQESVTEQDSKDSTYSLSSTLTLSKADYEKHKVYACEVTHQGLSSPVTKSFNRGEC
# notes: copies: 1 + 1 + 2
# B9: GpH7-A5/GpH7-B3 variant K326_05P/GpL16-k0 (antibody, human IgG1, kappa)
# heavy 1: not shown
# heavy 2: not shown
# light: DIVMTQSPLSLPVTPGEPASISCQASESLVHSNRNTYLHWYLQKPGQSPQLLIYKVSNRFSGVPDRFSGSGSGTDFTLKISRVEAEDVGVYYCSQNTHVPPTFGQGTKVEIERTVAAPSVFIFPPSDEQLKSGTASVVCLLNNFYPREAKVQWKVDNALQSGNSQESVTEQDSKDSTYSLSSTLTLSKADYEKHKVYACEVTHQGLSSPVTKSFNRGEC
# notes: copies: 1 + 1 + 2
# B10: GpH7-A5/GpH7-B3 variant K326_10E/GpL16-k0 (antibody, human IgG1, kappa)
# heavy 1: not shown
# heavy 2: not shown
# light: DIVMTQSPLSLPVTPGEPASISCQASESLVHSNRNTYLHWYLQKPGQSPQLLIYKVSNRFSGVPDRFSGSGSGTDFTLKISRVEAEDVGVYYCSQNTHVPPTFGQGTKVEIERTVAAPSVFIFPPSDEQLKSGTASVVCLLNNFYPREAKVQWKVDNALQSGNSQESVTEQDSKDSTYSLSSTLTLSKADYEKHKVYACEVTHQGLSSPVTKSFNRGEC
# notes: copies: 1 + 1 + 2
# B11: GpH7-A5/GpH7-B3 variant I336_13S/GpL16-k0 (antibody, human IgG1, kappa)
# heavy 1: not shown
# heavy 2: not shown
# light: DIVMTQSPLSLPVTPGEPASISCQASESLVHSNRNTYLHWYLQKPGQSPQLLIYKVSNRFSGVPDRFSGSGSGTDFTLKISRVEAEDVGVYYCSQNTHVPPTFGQGTKVEIERTVAAPSVFIFPPSDEQLKSGTASVVCLLNNFYPREAKVQWKVDNALQSGNSQESVTEQDSKDSTYSLSSTLTLSKADYEKHKVYACEVTHQGLSSPVTKSFNRGEC
# notes: copies: 1 + 1 + 2
# Target: T1, FcγRIIIa (human, UniProt P08637 17-208)
# T1 construct: extracellular domain; also called 3a; FcγRIIIa extracellular domain
# T1 sequence (P08637 other isoform, or with tags, fused parts or gaps): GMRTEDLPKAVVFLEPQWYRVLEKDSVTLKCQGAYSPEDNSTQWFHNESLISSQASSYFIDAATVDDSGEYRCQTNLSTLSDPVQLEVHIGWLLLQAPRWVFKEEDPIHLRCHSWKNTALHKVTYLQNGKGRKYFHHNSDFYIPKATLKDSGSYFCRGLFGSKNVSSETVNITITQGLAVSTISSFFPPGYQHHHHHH
# Test: SPR (Biacore);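 also: antibody variants captured on an SPR sensor chip, with FcγRIIIa passed over as analyte in HBS-EP+ buffer at 25 °C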
row,Binder,He/Con 3a
1,B1,88.8 % of GpH7-A5/GpH7-B3/GpL16-k0
2,B2,92.8 % of GpH7-A5/GpH7-B3/GpL16-k0
3,B3,94.4 % of GpH7-A5/GpH7-B3/GpL16-k0
4,B4,135 % of GpH7-A5/GpH7-B3/GpL16-k0
5,B5,127 % of GpH7-A5/GpH7-B3/GpL16-k0
6,B6,88.4 % of GpH7-A5/GpH7-B3/GpL16-k0
7,B7,99.4 % of GpH7-A5/GpH7-B3/GpL16-k0
8,B8,102 % of GpH7-A5/GpH7-B3/GpL16-k0
9,B9,117 % of GpH7-A5/GpH7-B3/GpL16-k0
10,B10,138 % of GpH7-A5/GpH7-B3/GpL16-k0
11,B11,97.1 % of GpH7-A5/GpH7-B3/GpL16-k0
